Laboratory results as given in patent US20060264363.
Where a chain is given by its changes, count along the chain named. Numbers in names are those of the source.

T1: SHC3 (p52) with C-terminal c-Myc-tag
T1 chain: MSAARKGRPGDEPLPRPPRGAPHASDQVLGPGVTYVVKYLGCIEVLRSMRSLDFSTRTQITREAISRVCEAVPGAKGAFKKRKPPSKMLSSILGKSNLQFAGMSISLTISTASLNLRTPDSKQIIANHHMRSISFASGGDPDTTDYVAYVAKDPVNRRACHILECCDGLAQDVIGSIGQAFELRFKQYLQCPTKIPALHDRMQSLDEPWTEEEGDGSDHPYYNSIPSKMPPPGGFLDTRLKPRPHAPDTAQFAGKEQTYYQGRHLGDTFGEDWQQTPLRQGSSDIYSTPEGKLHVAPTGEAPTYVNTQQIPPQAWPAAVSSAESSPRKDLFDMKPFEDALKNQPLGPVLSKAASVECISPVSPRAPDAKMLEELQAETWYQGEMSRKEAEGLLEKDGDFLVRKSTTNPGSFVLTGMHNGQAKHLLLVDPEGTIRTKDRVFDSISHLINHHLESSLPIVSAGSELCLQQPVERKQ

T2: biotinylated SHC3 (p64), C-terminal tagged (pcDNA3.1/V5-His)
T2 chain: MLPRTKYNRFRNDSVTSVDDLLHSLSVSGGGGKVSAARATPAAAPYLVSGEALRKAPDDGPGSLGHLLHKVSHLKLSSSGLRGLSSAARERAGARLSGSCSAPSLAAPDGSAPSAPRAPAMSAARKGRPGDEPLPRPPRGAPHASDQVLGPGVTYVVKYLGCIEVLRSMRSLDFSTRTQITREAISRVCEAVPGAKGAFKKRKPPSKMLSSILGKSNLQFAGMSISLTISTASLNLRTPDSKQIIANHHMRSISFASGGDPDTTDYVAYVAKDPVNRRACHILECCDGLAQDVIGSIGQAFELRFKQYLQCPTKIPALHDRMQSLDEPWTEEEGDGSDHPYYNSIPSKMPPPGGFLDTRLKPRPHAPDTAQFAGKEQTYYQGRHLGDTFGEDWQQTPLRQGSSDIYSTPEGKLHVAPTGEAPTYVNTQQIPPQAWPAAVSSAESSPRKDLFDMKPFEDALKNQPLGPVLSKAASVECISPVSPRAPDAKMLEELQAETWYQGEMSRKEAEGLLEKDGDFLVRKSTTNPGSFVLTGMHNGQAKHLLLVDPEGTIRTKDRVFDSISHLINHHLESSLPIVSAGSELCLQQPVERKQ

T3: SHC3 (p64) with C-terminal c-Myc-tag
T3 chain: T2 chain

T4: CREBL1 with N-terminal c-Myc-tag
T4 chain: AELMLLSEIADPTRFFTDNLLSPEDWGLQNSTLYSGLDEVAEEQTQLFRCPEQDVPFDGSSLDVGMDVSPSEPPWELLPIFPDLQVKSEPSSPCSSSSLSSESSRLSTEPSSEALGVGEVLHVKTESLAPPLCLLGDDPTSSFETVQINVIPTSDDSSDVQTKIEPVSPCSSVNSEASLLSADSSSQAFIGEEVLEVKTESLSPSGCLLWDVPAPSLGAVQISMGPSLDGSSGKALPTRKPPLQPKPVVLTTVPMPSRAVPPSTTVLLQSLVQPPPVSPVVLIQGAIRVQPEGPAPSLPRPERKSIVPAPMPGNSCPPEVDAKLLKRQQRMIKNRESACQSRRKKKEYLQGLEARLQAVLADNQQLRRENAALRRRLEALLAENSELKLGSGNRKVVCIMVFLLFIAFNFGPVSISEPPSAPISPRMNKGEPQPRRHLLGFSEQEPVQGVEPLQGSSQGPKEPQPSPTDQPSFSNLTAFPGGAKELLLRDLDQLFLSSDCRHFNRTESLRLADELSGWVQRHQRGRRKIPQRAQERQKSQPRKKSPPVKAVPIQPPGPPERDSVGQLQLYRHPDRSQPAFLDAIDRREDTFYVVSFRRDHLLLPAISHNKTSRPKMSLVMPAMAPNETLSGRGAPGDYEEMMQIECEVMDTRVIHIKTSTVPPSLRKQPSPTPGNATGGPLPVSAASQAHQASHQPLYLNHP

T5: biotinylated SHC3 (p52), C-terminal tagged (pcDNA3.1/V5-His)
T5 chain: T1 chain

T6: biotinylated CREBL1, N-terminal tagged (pcDNA3.1/His)
T6 chain: T4 chain

T7: ATF6 with N-terminal c-Myc-tag
T7 chain: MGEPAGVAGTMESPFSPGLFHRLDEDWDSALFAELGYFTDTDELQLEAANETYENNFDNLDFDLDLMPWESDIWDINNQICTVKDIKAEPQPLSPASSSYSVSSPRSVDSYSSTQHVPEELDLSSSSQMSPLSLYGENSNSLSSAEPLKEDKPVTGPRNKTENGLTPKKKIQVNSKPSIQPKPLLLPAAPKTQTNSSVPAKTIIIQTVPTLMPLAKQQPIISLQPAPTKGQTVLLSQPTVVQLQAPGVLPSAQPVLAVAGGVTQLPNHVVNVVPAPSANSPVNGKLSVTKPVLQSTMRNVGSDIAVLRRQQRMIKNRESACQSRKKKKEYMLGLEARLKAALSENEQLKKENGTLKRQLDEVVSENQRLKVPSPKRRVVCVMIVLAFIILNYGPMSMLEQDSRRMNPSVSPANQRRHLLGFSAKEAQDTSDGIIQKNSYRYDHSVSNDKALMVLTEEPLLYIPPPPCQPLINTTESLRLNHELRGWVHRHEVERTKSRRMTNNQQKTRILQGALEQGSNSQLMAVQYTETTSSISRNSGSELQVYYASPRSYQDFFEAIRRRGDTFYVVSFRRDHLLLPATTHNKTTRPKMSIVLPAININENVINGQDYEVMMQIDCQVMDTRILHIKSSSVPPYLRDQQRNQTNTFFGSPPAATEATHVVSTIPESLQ

B1: mature HtrA2 with C-terminal histidine (His)-tag (protein)
chain: MAVPSPPPASPRSQYNFIADVVEKTAPAVVYIEILDRHPFLGREVPISNGSGFVVAADGLIVTNAHVVADRRRVRVRLLSGDTYEAVVTAVDPVADIATLRIQTKEPLPTLPLGRSADVRQGEFVVAMGSPFALQNTITSGIVSSAQRPARDLGLPQTNVEYIQTDAAIDFGNSGGPLVNLDGEVIGVNTMKVTAGISFAIPSDRLREFLHRGEKKNSSSGISGSQRRYIGVMMLTLSPSILAELQLREPSFPDVQHGVLIHKVILGSPAHRAGLRPGDVILAIGEQMVQNAEDVYEAVRTQSQLAVQIRRGRETLTLYVTPEVTE
B2: mature HtrA2 (S306A) with C-terminal histidine (His)-tag (protein)
chain: B1 chain with S174A

Key:
[1] = biological target: T1, SHC3 (p52) with C-terminal c-Myc-tag
[2] = biological target: T2, biotinylated SHC3 (p64), C-terminal …
[3] = biological target: T3, SHC3 (p64) with C-terminal c-Myc-tag
[4] = biological target: T4, CREBL1 with N-terminal c-Myc-tag
[5] = biological target: T5, biotinylated SHC3 (p52), C-terminal …
[6] = biological target: T6, biotinylated CREBL1, N-terminal tagged …
[7] = biological target: T7, ATF6 with N-terminal c-Myc-tag

Protein | in vitro protease assay: degradation of SHC3 (p52), anti-Myc Western blot [1] | in vitro protease assay: degradation pattern of biotinylated SHC3 (p64) (streptavidin HRP and anti-V5 blots) [2] | in vitro protease assay: band of SHC3 (p64) on anti-Myc Western blot [3] | in vitro protease assay: band of CREBL1 on anti-Myc Western blot [4] | in vitro protease assay: degradation pattern of biotinylated SHC3 (p52) (streptavidin HRP and anti-V5 blots) [5] | in vitro protease assay: degradation pattern of biotinylated CREBL1 (streptavidin HRP and anti-Xpress blots) [6] | in vitro protease assay: band of ATF6 on anti-Myc Western blot [7] | in vitro protease assay: degradation of biotinylated SHC3 (p64) (streptavidin HRP blot) [2] | in vitro protease assay: degradation of SHC3 (p64), anti-Myc Western blot [3] | in vitro protease assay: degradation of CREBL1, anti-Myc Western blot [4] | in vitro protease assay: degradation of biotinylated SHC3 (p52) (streptavidin HRP blot) [5] | in vitro protease assay: degradation of biotinylated CREBL1 (streptavidin HRP blot) [6] | in vitro protease assay: degradation of ATF6, anti-Myc Western blot [7]
B1 | Further it was observed that SHC3 (p52) was also degraded by mature HtrA2. | remarkable reduction of the band of biotinylated SHC3 (p64) was observed, and further, the bands that were supposed to be a degradation products of SHC3 (p64) were detected around 70 kDa, 40 kDa, and 30 kDa | the band of SHC3 (p64) was significantly reduced after the reaction of active HtrA2 with SHC3 (p64) for four hours (4 h) or overnight (O/N) | the band of CREBL1 was significantly reduced after the reaction of active HtrA2 with CREBL1 for overnight (O/N) | remarkable reduction of the band of biotinylated SHC3 (p52) was observed, but the band that was supposed to be a degradation product of SHC3 (p52) was not detected | remarkable reduction of the band of biotinylated CREBL1 was observed, and further, the band that was supposed to be a degradation product of CREBL1 was detected around 50 kDa | the band of ATF6 was significantly reduced after the reaction of active HtrA2 with ATF6 for four hours (4 h) or overnight (O/N) | – | – | – | – | – | –
B2 | the degradation of SHC3 (p52) by inactive HtrA2 (mature HtrA2 (S306A)) was not observed as well | – | – | – | – | – | – | the degradation of SHC3 (p64) by inactive HtrA2 (mature HtrA2 (S306A)) was not observed, and the bands around 70 kDa, 40 kDa and 30 kDa as above were not detected | the degradation of CREBL1, ATF6, and SHC3 (p64) by inactive HtrA2 (mature HtrA2 (S306A)) was not observed | the degradation of CREBL1, ATF6, and SHC3 (p64) by inactive HtrA2 (mature HtrA2 (S306A)) was not observed | the degradation of SHC3 (p52) by inactive HtrA2 (mature HtrA2 (S306A)) was not observed | the degradation of CREBL1 by inactive HtrA2 (mature HtrA2 (S306A)) was not observed, and the band around 50 kDa as above was not detected | the degradation of CREBL1, ATF6, and SHC3 (p64) by inactive HtrA2 (mature HtrA2 (S306A)) was not observed
